B1: Wild type rat serum albumin (ligand)
chain: EAHKSEIAHRFKDLGEQHFKGLVLIAFSQYLQKCPYEEHIKLVQEVTDFAKTCVADENAENCDKSIHTLFGDKLCAIPKLRDNYGELADCCAKQEPERNECFLQHKDDNPNLPPFQRPEAEAMCTSFQENPTSFLGHYLHEVARRHPYFYAPELLYYAEKYNEVLTQCCTESDKAACLTPKLDAVKEKALVAAVRQRMKCSSMQRFGERAFKAWAVARMSQRFPNAEFAEITKLATDVTKINKECCHGDLLECADDRAELAKYMCENQATISSKLQACCDKPVLQKSQCLAEIEHDNIPADLPSIAADFVEDKEVCKNYAEAKDVFLGTFLYEYSRRHPDYSVSLLLRLAKKYEATLEKCCAEGDPPACYGTVLAEFQPLVEEPKNLVKTNCELYEKLGEYGFQNAVLVRYTQKAPQVSTPTLVEAARNLGRVGTKCCTLPEAQRLPCVEDYLSAILNRLCVLHEKTPVSEKVTKCCSGSLVERRPCFSALTVDETYVPKEFKAETFTFHSDICTLPDKEKQIKKQTALAELVKHKPKATEDQLKTVMGDFAQFVDKCCKAADKDNCFATEGPNLVARSKEALA
notes: also called RSA; RSA Wt
B2: Soluble cynomolgus macaque FcRn with cynomolgus beta2-microglobulin, HIS-tagged (receptor)
chain: AESHLSLLYHLTAVSSPAPGTPAFWVSGWLGPQQYLSYDSLRGQAEPCGAWVWENQVSWYWEKETTDLRIKEKLFLEAFKALGGKGPYTLQGLLGCELSPDNTSVPTAKFALNGEEFMNFDLKQGTWGGDWPEALAISQRWQQQDKAANKELTFLLFSCPHRLREHLERGRGNLEWKEPPSMRLKARPGNPGFSVLTCSAFSFYPPELQLRFLRNGMAAGTGQGDFGPNSDGSFHASSSLTVKSGDEHHYCCIVQHAGLAQPLRVELETPAKSS
b2m: IQRTPKIQVYSRHPPENGKPNFLNCYVSGFHPSDIEVDLLKNGEKMGKVEHSDLSFSKDWSFYLLYYTEFTPNEKDEYACRVNHVTLSGPRTVKWDRDM
notes: Synthesized by GeneArt, expressed in HEK cells; also called CynoFcRn; Cyno FcRn; not shown: HIS-tag on the C-terminal of the beta-chain

What was measured:
[1] = target: T1, Soluble rat FcRn, GST-tagged, with human beta2-microglobulin (rat; Schistosoma japonicum; human, UniProt P08515 1-218 = GST); assay: SPR, albumin over immobilized GST-FcRn, pH 6.0, 1:1 model
T1 construct: also called srFcRn
Description: (§1) SPR experiments were carried out using a Biacore 3000 instrument (GE Healthcare). Flow cells of CM5 sensor chips were coupled with soluble FcRn from one of the following species, human (shFcRn), rat (srFcRn), mouse (smFcRn), rhesus monkey (srmFcRn), dog (dFcRn) or pig (pFcRn) (˜900-2500 resonance units (RU)) using GE Healthcare amine coupling chemistry as per the manufacturer's instructions. The coupling was performed by injecting 2 or 10 μg/ml FcRn in 10 mM sodium acetate pH 5.0 (GE healthcare). Phosphate buffer (67 mM phosphate buffer, 0.15 M NaCl, 0.005% Tween 20) at pH 6.0) was used as running buffer and dilution buffer. Regeneration of the surfaces were done using injections of HBS-EP buffer (0.01 M HEPES, 0.15 M NaCl, 3 mM EDTA, 0.005% surfactant P20) at pH 7.4 (GE Healthcare). For determination of binding kinetics, serial dilutions of albumin (10-0.3 μM) were injected over immobilized receptors at a constant flow rate (50 μl/min) at 25° C. In all experiments, data were zero adjusted and the reference cell subtracted.

[2] = target: T2, Soluble pig FcRn, GST-tagged, with human beta2-microglobulin (Example 2) (pig; Schistosoma japonicum; human, UniProt P08515 1-218 = GST); assay: as above
T2 construct: also called pFcRn; spFcRn
Description: as §1

[3] = target: T3, Soluble mouse FcRn, GST-tagged, with human beta2-microglobulin (mouse; Schistosoma japonicum; human, UniProt P08515 1-218 = GST); assay: as above
T3 construct: also called smFcRn
Description: as §1

[4] = target: T4, Soluble rhesus monkey FcRn, GST-tagged, with human beta2-microglobulin (rhesus monkey; Schistosoma japonicum; …, UniProt P08515 1-218 = GST); assay: as above
T4 construct: also called srmFcRn; soluble rhesus macaque FcRn
Description: as §1

[5] = target: T5, Soluble dog FcRn, GST-tagged, with human beta2-microglobulin (dog; Schistosoma japonicum; human, UniProt P08515 1-218 = GST); assay: as above
T5 construct: also called dFcRn
Description: as §1

[6] = target: T1, Soluble rat FcRn, GST-tagged, with …; assay: SPR, albumin over immobilized GST-FcRn, pH 6.0, steady state
Description: as §1

[7] = target: T3, Soluble mouse FcRn, GST-tagged, with …; assay: as above
Description: as §1

[8] = target: T6, Wild type cynomolgus macaque serum albumin (cynomolgus macaque, UniProt A2V9Z4 24-608); assay: SPR, albumin over immobilized His-FcRn, pH 5.5, 1:1 Langmuir
T6 construct: also called CSA; native cyno albumin
T6 sequence (A2V9Z4 24-608): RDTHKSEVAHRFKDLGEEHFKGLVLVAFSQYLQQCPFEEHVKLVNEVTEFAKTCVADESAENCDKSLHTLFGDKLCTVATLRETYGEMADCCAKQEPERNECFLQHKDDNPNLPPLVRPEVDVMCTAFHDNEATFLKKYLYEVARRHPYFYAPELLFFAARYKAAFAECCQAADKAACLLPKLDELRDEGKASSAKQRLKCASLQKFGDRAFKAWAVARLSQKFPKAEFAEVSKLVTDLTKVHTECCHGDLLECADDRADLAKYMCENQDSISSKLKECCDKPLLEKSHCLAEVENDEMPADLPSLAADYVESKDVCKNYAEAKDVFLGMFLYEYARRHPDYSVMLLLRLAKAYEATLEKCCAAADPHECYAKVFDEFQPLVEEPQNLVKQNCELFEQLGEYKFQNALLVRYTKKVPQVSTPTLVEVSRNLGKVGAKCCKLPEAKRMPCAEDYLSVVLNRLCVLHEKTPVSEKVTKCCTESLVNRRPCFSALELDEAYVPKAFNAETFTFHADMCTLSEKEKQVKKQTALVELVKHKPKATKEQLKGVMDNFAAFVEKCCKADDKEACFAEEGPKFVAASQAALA
Description: as §1
The SPR assay was conducted with the following variations to the assay described in the Materials and Method section:
The soluble FcRn receptors were synthesized by GeneArt and expressed in HEK cells. The soluble FcRn contained a HIS-tag on the C-terminal of the Beta-chain instead of a GST on the heavy chain and the beta-chain used was the native beta-chain of the animal (see Materials and Method section for the corresponding sequences). The soluble FcRn was purified by a HIS trap column followed by an additional purification using an IgG column. The soluble FcRn receptor was diluted to 20 μg/mL. The phosphate buffer used as running buffer in the SPR assay was at pH 5.5 instead of pH 6.0. […] 1:1 Langmuir or Steady state model was used.

Binder | Kd [1] [µM] | koff [1] [s⁻¹] | kon [1] [M⁻¹ s⁻¹] | Kd [2] [µM] | koff [2] [s⁻¹] | kon [2] [M⁻¹ s⁻¹] | Kd [3] [µM] | koff [3] [s⁻¹] | kon [3] [M⁻¹ s⁻¹] | Kd [4] [µM] | koff [4] [s⁻¹] | kon [4] [M⁻¹ s⁻¹] | Kd [5] [µM] | koff [5] [s⁻¹] | kon [5] [M⁻¹ s⁻¹] | Kd [6] [µM] | Kd [7] [µM] | Kd [8] [µM]
B1 | 3.2 | 0.026 | 7600 | 6.4 | 0.071 | 11000 | 2.6 | 0.0341 | 13000 | 2.2 | 0.0101 | 4500 | 5.8 | 0.048 | 8300 | 4.1 | 2.6 | 
B2 |  |  |  |  |  |  |  |  |  |  |  |  |  |  |  |  |  | 35

Source: patent US20160033523A1 (NOVOZYMES BIOPHARMA DK A S, published 2016)
